± gives the standard deviation of the averaged measurements.
Tested on: Saccharomyces cerevisiae
Test: protein stability index of tFT-peptide fusion (C-terminal peptide) (PSI (0-1 scale)); higher = more stable (slower turnover)
Settings: genetic background: wild type; temperature: 30 C
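Further: PSI is a weighted mean of sequencing reads over stability bins, variants kept only with over 10 reads, mCherry proximal and sfGFP distal, peptide attached via GGGS linker.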

Sequence | protein stability index
PAISPPSPPPLP | 0.685 ± 0.047
GVLQYPPCTYPH | 0.675 ± 0.0078
DGCLTKPGQCHG | 0.646 ± 0.013
LCAGASYTMTVP | 0.694 ± 0.021
PPLSPLSPLAPP | 0.712 ± 0.038
LVGGFLVSGRAR | 0.69 ± 0.051
LLFTWGGRGCLG | 0.746 ± 0.032
GKQKKKHRRNLK | 0.743 ± 0.12
EPNSPTYLSMLI | 0.637 ± 0.018
GVARSMAGWARC | 0.703 ± 0.035
KQRSKKCRETYR | 0.729 ± 0.019
FGDPRRTDPLRL | 0.631 ± 0.04
RPPPPRPRSLLS | 0.654 ± 0.097
YTSHPVLPEVNG | 0.695 ± 0.035
PSHPPPPATPCP | 0.7108 ± 0.0065
PHLHHPPPPISA | 0.603 ± 0.027
LVQPHGSRFGLA | 0.644 ± 0.012
VGVWRGWDVDCH | 0.776 ± 0.061
LSVMACGMGESI | 0.696 ± 0.017
PLPRPPRLVFSS | 0.5 ± 0.012
FKVARGVHCGEG | 0.6662 ± 0.0037
GEVRHCRVTVIA | 0.539 ± 0.036
LATLLIRLLGQA | 0.496 ± 0.0088
GVGVWVVLGRAG | 0.644 ± 0.031
LPLSSLLRPRHS | 0.684 ± 0.056
PKQMVVRRSRRP | 0.695 ± 0.07

Sequence | protein stability index
QAANPWQRPFGW | 0.689 ± 0.087
PVCLHPPPSHTH | 0.737 ± 0.061
KKKIRKKKVRRK | 0.649 ± 0.024
YKGKFTILESLK | 0.665 ± 0.027
DLQKKKEILSQK | 0.707 ± 0.029
GMSFNVPLWGSI | 0.69 ± 0.086
GGTWVLGWGLGV | 0.714 ± 0.4
MSGKIMVLQKEE | 0.643 ± 0.013
SPPLPHLPTPTP | 0.603 ± 0.14
CGPGGFGGERVG | 0.73 ± 0.058
DQLETTSAPLPG | 0.711 ± 0.044
ALPPPPPPSPLL | 0.642 ± 0.035
DAELYLPSPTRL | 0.666 ± 0.064
CRWLGELGVWVF | 0.637 ± 0.062
PSPHRFPAPTLP | 0.687 ± 0.039
KRGRGPQFCDLY | 0.693 ± 0.045
RAYRSTCRCSER | 0.669 ± 0.081
PPALLRLTSSAR | 0.702 ± 0.026
QQNKKKKTRKSG | 0.704 ± 0.046
CLWRGDEGRVPW | 0.7139 ± 0.0026
GWEYMDERVNQS | 0.74 ± 0.013
PMMTKDEFNNRM | 0.702 ± 0.015
RPPLLPPLDAPS | 0.713 ± 0.027
ILCLPFSVSSPS | 0.61579 ± 0.00015
QVGTHVTLCEDP | 0.679 ± 0.0098
CFIPLCPLSFCI | 0.609 ± 0.016

Sequence | protein stability index
GIDARGLYGGAL | 0.66 ± 0.032
KGLSNGKNQIKM | 0.597 ± 0.036
RTRAPSKHAPER | 0.841 ± 0.16
GPLVQVTSYSRY | 0.691 ± 0.0077
FVVGTFGHRRGR | 0.694 ± 0.019
TRCRLRETISRR | 0.651 ± 0.067
GLRAAGCRAVGG | 0.672 ± 0.025
PPPRRAPLSPSV | 0.669 ± 0.042
PCPGSPPCHFYF | 0.691 ± 0.018
RAFDWFFIFGWC | 0.636 ± 0.04
LAHRASICLARL | 0.695 ± 0.063
PPPHPRPSPPSP | 0.702 ± 0.048
DETRQTYRNRKG | 0.728 ± 0.12
GKNAEENNIVRE | 0.614 ± 0.083
YGNTQFLTQTWY | 0.705 ± 0.021
EKGAEGDHGEVR | 0.678 ± 0.017
KQKARRARGKEG | 0.65 ± 0.024
VFDHVGWPFWSY | 0.714 ± 0.041
LEPSDMDTDSDG | 0.706 ± 0.018
RWFILCRSLPTG | 0.613 ± 0.071
GGGGGGGLGGAF | 0.717 ± 0.026
RTSLRYLKRVER | 0.669 ± 0.076
FLHLGGEWGVEG | 0.683 ± 0.041
AVLKDFDTKHLY | 0.613 ± 0.024
GKVGSLGLVLSP | 0.682 ± 0.096
KETTEKTEIRII | 0.7 ± 0.012

Sequence | protein stability index
VVRLTALTNATV | 0.671 ± 0.086
FRPCLRCLVSPF | 0.6358 ± 0.0063
LPQSSRKEAHHH | 0.78 ± 0.062
SLVLPPRPFPPF | 0.746 ± 0.058
RHTYSPRAPVPD | 0.707 ± 0.025
GGGRRRVAGREL | 0.701 ± 0.048
PPPKAPHSSPNL | 0.675 ± 0.072
SRYERLFSDNRG | 0.718 ± 0.019
SDKNNRFGRVRV | 0.674 ± 0.072
IGLFWSGFFYGV | 0.743 ± 0.038
NEPQDQLQEQAT | 0.665 ± 0.069
WASKVGSYICAE | 0.671 ± 0.02
KIEHEGIKKGGT | 0.807 ± 0.14
ALTALQTFRITL | 0.638 ± 0.014
CLCRAAGARRCG | 0.694 ± 0.03
GAGGVWVRAWGP | 0.768 ± 0.095
KEHTNKDEMPKE | 0.705 ± 0.074
SSHHGSSEDDHQ | 0.6597 ± 0.001
LPFLLPLVTPLP | 0.696 ± 0.068
SPPLPPPARLPA | 0.615 ± 0.019
LLDTSTVTCFER | 0.741 ± 0.01
SSGFVWVGVCVG | 0.5 ± 0.0069
VHWRDARFLRGM | 0.658 ± 0.045
PLSVPPMSSLLP | 0.7202 ± 0.0068
SASPEGTQRSPW | 0.761 ± 0.14
DERSWLPLFFST | 0.695 ± 0.035

Sequence | protein stability index
PPSLRPSSSPPI | 0.724 ± 0.022
CWGVGGRTVING | 0.671 ± 0.049
RVVWVWLMSALF | 0.54 ± 0.034
SGGRCVGVGGVV | 0.658 ± 0.028
VGSWVEVWGVIG | 0.687 ± 0.041
WRRPRVLWVSSR | 0.637 ± 0.0079
GRSCSSWSSWGF | 0.716 ± 0.01
SEGSLIPGSHIA | 0.733 ± 0.066
VDLGLYGYTDIW | 0.685 ± 0.035
KGREKTKKKGTK | 0.688 ± 0.011
KKKKKPKKQNSG | 0.6592 ± 0.0047
GSGGGEVCGCGG | 0.681 ± 0.048
MKEKTNLETKDT | 0.691 ± 0.013
GLGGPLSLVYLF | 0.629 ± 0.037
RKEGRGEEPEKG | 0.65 ± 0.049
CKRKGREEEEKE | 0.7361 ± 0.0064
SDMTHRSCTLLC | 0.633 ± 0.028
GVRRVVKGTKGC | 0.662 ± 0.013
LIVWAGACGVSR | 0.611 ± 0.014
RCHGRVNLAEGE | 0.7564 ± 0.00055
SYTLSGYGSRDN | 0.698 ± 0.018
PPPPLLSPPSPP | 0.714 ± 0.015
GTWSVYSEKFVG | 0.652 ± 0.0081
RVLASVGCYLFW | 0.641 ± 0.015
PPSPSNPNPLRP | 0.726 ± 0.019
SPVPRPGTTRRP | 0.721 ± 0.031

Sequence | protein stability index
LESCFFGSFFFL | 0.778 ± 0.091
CYAVEACWASCA | 0.597 ± 0.0087
RVMGDAAGCGGV | 0.707 ± 0.062
PPPFSPLPPGPP | 0.699 ± 0.0077
GSRLIGGFIVVG | 0.6365 ± 0.0021
CDLISPAHLVLG | 0.678 ± 0.01
KRKDKKKKYIRK | 0.759 ± 0.085
AERCCLHPPIPA | 0.541 ± 0.033
RFGGVWRCRGFV | 0.696 ± 0.031
SIIRDKERNNYK | 0.654 ± 0.015
ESSQLELRGGGR | 0.725 ± 0.0047
RLRPLSPPTLCD | 0.665 ± 0.044
PIELTLQRPPGV | 0.671 ± 0.031
LSLSILFTPSPN | 0.682 ± 0.051
VTIFAGIGQFWF | 0.706 ± 0.021
LKYEGPKYHMKR | 0.691 ± 0.061
LHAHTAPAHPKT | 0.689 ± 0.0087
MSIDQPLLGTGV | 0.638 ± 0.034
PPPSSPSPPRCR | 0.733 ± 0.1
PSRIRPPTASPP | 0.76 ± 0.061
PPGPPLPRPRRP | 0.694 ± 0.043
EPLLVSPATPNL | 0.7311 ± 0.00091
RSSYTLLLPPLR | 0.624 ± 0.0074
PPSSTAALPPLP | 0.609 ± 0.066
LLRRSNLLHLVL | 0.574 ± 0.049
PLPPPPPPSFPP | 0.769 ± 0.057

Sequence | protein stability index
TNYIPRQSKKGG | 0.71 ± 0.022
IRQITVTICRGR | 0.639 ± 0.067
PEITWFVIGVIE | 0.541 ± 0.043
GALVLWTGCTYS | 0.726 ± 0.0033
TIVFLLPSPRSY | 0.657 ± 0.0094
RRRGRGAVGATR | 0.716 ± 0.073
VRWSEVGMGVWR | 0.708 ± 0.014
HMLSGRSFVRGD | 0.69 ± 0.038
GWWVVTLRSGLR | 0.651 ± 0.09
LADFLGVSLLAV | 0.5695 ± 0.0031
PQFRHFWALSTT | 0.707 ± 0.015
VLGVVGNYFESA | 0.668 ± 0.078
GGSTAKGRPMDT | 0.645 ± 0.0067
EREREKGEEEEG | 0.629 ± 0.0079
SLREIIRKSLGL | 0.677 ± 0.022
PAPLLPPSWRHP | 0.716 ± 0.015
YREVGGVAERRR | 0.695 ± 0.044
FVGCVNIFLSWG | 0.51 ± 0.019
LRAPFGWVKRFL | 0.663 ± 0.069
HRRASYVLSPLS | 0.7413 ± 0.0073
FFPPAHFAPQPA | 0.719 ± 0.015
PPSSPPSVLPPV | 0.666 ± 0.021
RCLSRLSALGTD | 0.624 ± 0.076
SHHSVNWKPQGL | 0.668 ± 0.025
PSPPFFLTAASL | 0.668 ± 0.01
WWASFVGSFVGD | 0.878 ± 0.15

Sequence | protein stability index
DMDLAVTRHIRS | 0.718 ± 0.1
RYAEVGSLVSFL | 0.714 ± 0.0087
FRLNSYQNGSRV | 0.682 ± 0.043
CKCKFLGLSATM | 0.613 ± 0.013
RCTRQVHPLTFR | 0.66 ± 0.038
EIGWTEGGECVG | 0.632 ± 0.051
GPRRGRSGSGWM | 0.6499 ± 0.0057
ERRPTYFFHDHE | 0.693 ± 0.055
NKKKKQRMKRNG | 0.719 ± 0.12
SKKSKTQSNKNQ | 0.683 ± 0.02
GLRGFCGVIEFF | 0.721 ± 0.14
ALLPPPRPLPHP | 0.719 ± 0.014
TPSCPALRGDAE | 0.661 ± 0.016
VCGLGGCGGLGV | 0.731 ± 0.039
SPIVLTYHYLCR | 0.666 ± 0.0087
RHGTRHKLLGTL | 0.659 ± 0.016
PLSLIRFSAFQS | 0.486 ± 0.036
VRRRRVPSEATR | 0.667 ± 0.044
TKRIKEERTKKC | 0.65 ± 0.025
EQSERINKKARK | 0.67 ± 0.063
